# Values of other authors, collected in article PMC3575409, “Identification of a Novel Protein-Protein Interaction Motif Mediating Interaction of GPCR-Associated Sorting Proteins with G Protein-Coupled Receptors” (PLoS ONE, 2013).
# B1: amino-acids 898 to 1395: truncated form of GASP-1 used by Heydorn and collaborators (protein, UniProt Q5JY77 898-1395, looked up, fragment)
# chain: ESETEEETIFGSWFWDGKEVSEEAGPCCVSKPEDDEEMIVESWFWSRDKAIKETGTVATCESKPENEEGAIVGSWFEAEDEVDNRTDNGSNCGSRTLADEDEAIVGSWFWAGDEAHFESNPSPVFRAICRSTCSVEQEPDPSRRPQSWEEVTVQFKPGPWGRVGFPSISPFRFPKEAASLFCEMFGGKPRNMVLSPEGEDQESLLQPDQPSPEFPFQYDPSYRSVQEIREHLRAKESTEPESSSCNCIQCELKIGSEEFEELLLLMEKIRDPFIHEISKIAMGMRSASQFTRDFIRDSGVVSLIETLLNYPSSRVRTSFLENMIRMAPPYPNLNIIQTYICKVCEETLAYSVDSPEQLSGIRMIRHLTTTTDYHTLVANYMSGFLSLLATGNAKTRFHVLKMLLNLSENLFMTKELLSAEAVSEFIGLFNREETNDNIQIVLAIFENIGNNIKKETVFSDDDFNIEPLISAFHKVEKFAKELQGKTDNQNDPEGDQEN
# System: GST-fused ADRB1 C-tail
# Conditions: truncated form of GASP-1, amino-acids 898 to 1395; ref [10]; cited from earlier work
# Text: This discrepancy is most likely due to the fact that we used full-length GASPs to perform our experiments, while Heydorn and collaborators used a truncated form of GASP-1, corresponding to amino-acids 898 to 1395. When we performed GST-pull down experiments with a similar fragment of GASP-1 (corresponding to amino acids 924 to 1395), only 5% ...
molecule,measurement,value
B1,interaction of GASP-1 with ADRB1 C-tail,low interaction
